{
  "source": "paper PMC6226536",
  "assay_in_all_cases": "Y2H (α-galactosidase activity)",
  "key": {"[1]": {"target": "SlTRM17/20a fragment", "conditions": "read off a plot"}, "[2]": {"target": "SlTRM5 fragment", "conditions": "read off a plot"}, "[3]": {"target": "SlTRM25 fragment", "conditions": "parent: est. 4.2; read off a plot"}, "[4]": {"target": "SlOFP20", "conditions": "read off a plot"}, "[5]": {"target": "OVATE", "conditions": "read off a plot"}, "[6]": {"target": "OVATE^D280R", "conditions": "read off a plot"}, "[7]": {"target": "OVATE D280V", "conditions": "read off a plot"}, "[8]": {"target": "OVATE E299V", "conditions": "read off a plot"}, "[9]": {"target": "SlOFP20^D265R", "conditions": "read off a plot"}, "[10]": {"target": "SlOFP20 D265V", "conditions": "read off a plot"}, "[11]": {"target": "SlOFP20 D284V", "conditions": "read off a plot"}},
  "data": [
    {"substance": "OVATE D280R", "values": [
      {"measurement": "response (milliunits/(ml×cell))", "setting": "[1]; parent: est. 7.2", "result": 0.1},
      {"measurement": "response (milliunits/(ml×cell))", "setting": "[2]; parent: est. 7.1", "result": 0.1},
      {"measurement": "response (milliunits/(ml×cell))", "setting": "[3]", "result": 0.1}
    ]},
    {"substance": "OVATE D280V", "values": [
      {"measurement": "response (milliunits/(ml×cell))", "setting": "[1]; parent: est. 7.2", "result": 1.6},
      {"measurement": "response (milliunits/(ml×cell))", "setting": "[2]; parent: est. 7.1", "result": 0.1},
      {"measurement": "response (milliunits/(ml×cell))", "setting": "[3]", "result": 0.1}
    ]},
    {"substance": "OVATE E299V", "values": [
      {"measurement": "response (milliunits/(ml×cell))", "setting": "[1]; parent: est. 7.2", "result": 5},
      {"measurement": "response (milliunits/(ml×cell))", "setting": "[2]; parent: est. 7.1", "result": 3.1},
      {"measurement": "response (milliunits/(ml×cell))", "setting": "[3]", "result": 2.5}
    ]},
    {"substance": "SlOFP20 D265R", "values": [
      {"measurement": "response (milliunits/(ml×cell))", "setting": "[1]; parent: est. 7.9", "result": 5.3},
      {"measurement": "response (milliunits/(ml×cell))", "setting": "[2]; parent: est. 5.2", "result": 0.1},
      {"measurement": "response (milliunits/(ml×cell))", "setting": "[3]", "result": 0.1}
    ]},
    {"substance": "SlOFP20 D265V", "values": [
      {"measurement": "response (milliunits/(ml×cell))", "setting": "[1]; parent: est. 7.9", "result": 6},
      {"measurement": "response (milliunits/(ml×cell))", "setting": "[2]; parent: est. 5.2", "result": 0.1},
      {"measurement": "response (milliunits/(ml×cell))", "setting": "[3]", "result": 0.1}
    ]},
    {"substance": "SlOFP20 D284V", "values": [
      {"measurement": "response (milliunits/(ml×cell))", "setting": "[1]; parent: est. 7.9", "result": 7.2},
      {"measurement": "response (milliunits/(ml×cell))", "setting": "[2]; parent: est. 5.2", "result": 2.5},
      {"measurement": "response (milliunits/(ml×cell))", "setting": "[3]", "result": 0.25}
    ]},
    {"substance": "SlTRM5 fragment R374V", "values": [
      {"measurement": "response (milliunits/(ml×cell))", "setting": "[4]; parent: est. 5.2", "result": 3.4},
      {"measurement": "response (milliunits/(ml×cell))", "setting": "[5]; parent: est. 7.1", "result": 4.7}
    ]},
    {"substance": "SlTRM17/20a fragment K318V", "values": [
      {"measurement": "response (milliunits/(ml×cell))", "setting": "[4]; parent: est. 7.9", "result": 4.5},
      {"measurement": "response (milliunits/(ml×cell))", "setting": "[5]; parent: est. 7.2", "result": 4.2}
    ]},
    {"substance": "SlTRM25 fragment K327V", "values": [
      {"measurement": "response (milliunits/(ml×cell))", "setting": "[4]; parent: est. 4.2", "result": 1.9},
      {"measurement": "response (milliunits/(ml×cell))", "setting": "[5]; parent: est. 4.2", "result": 2.1}
    ]},
    {"substance": "m3; m1 SlTRM5:R374V; OVATE:D280R", "values": [
      {"measurement": "response (milliunits/(ml×cell))", "setting": "[6]; parent: est. 7.1", "result": 0.1}
    ]},
    {"substance": "m3; m1 SlTRM5:R374V; OVATE:D280V", "values": [
      {"measurement": "response (milliunits/(ml×cell))", "setting": "[7]; parent: est. 7.1", "result": 0.1}
    ]},
    {"substance": "m3; m1 SlTRM5:R374V; OVATE:E299V", "values": [
      {"measurement": "response (milliunits/(ml×cell))", "setting": "[8]; parent: est. 7.1", "result": 3.1}
    ]},
    {"substance": "m3; m2 SlTRM5:R374V; SlOFP20:D265R", "values": [
      {"measurement": "response (milliunits/(ml×cell))", "setting": "[9]; parent: est. 5.2", "result": 0.1}
    ]},
    {"substance": "m3; m2 SlTRM5:R374V; SlOFP20:D265V", "values": [
      {"measurement": "response (milliunits/(ml×cell))", "setting": "[10]; parent: est. 5.2", "result": 0.1}
    ]},
    {"substance": "m3; m2 SlTRM5:R374V; SlOFP20:D284V", "values": [
      {"measurement": "response (milliunits/(ml×cell))", "setting": "[11]; parent: est. 5.2", "result": 2.4}
    ]},
    {"substance": "m4; m1 SlTRM17/20a:K318V; OVATE:D280R", "values": [
      {"measurement": "response (milliunits/(ml×cell))", "setting": "[6]; parent: est. 7.2", "result": 0.25}
    ]},
    {"substance": "m4; m1 SlTRM17/20a:K318V; OVATE:D280V", "values": [
      {"measurement": "response (milliunits/(ml×cell))", "setting": "[7]; parent: est. 7.2", "result": 0.9}
    ]},
    {"substance": "m4; m1 SlTRM17/20a:K318V; OVATE:E299V", "values": [
      {"measurement": "response (milliunits/(ml×cell))", "setting": "[8]; parent: est. 7.2", "result": 4.1}
    ]},
    {"substance": "m4; m2 SlTRM17/20a:K318V; SlOFP20:D265R", "values": [
      {"measurement": "response (milliunits/(ml×cell))", "setting": "[9]; parent: est. 7.9", "result": 3}
    ]},
    {"substance": "m4; m2 SlTRM17/20a:K318V; SlOFP20:D265V", "values": [
      {"measurement": "response (milliunits/(ml×cell))", "setting": "[10]; parent: est. 7.9", "result": 3.6}
    ]},
    {"substance": "m4; m2 SlTRM17/20a:K318V; SlOFP20:D284V", "values": [
      {"measurement": "response (milliunits/(ml×cell))", "setting": "[11]; parent: est. 7.9", "result": 4.8}
    ]},
    {"substance": "m5; m1 SlTRM25:K327V; OVATE:D280R", "values": [
      {"measurement": "response (milliunits/(ml×cell))", "setting": "[6]; parent: est. 4.2", "result": 0.1}
    ]},
    {"substance": "m5; m1 SlTRM25:K327V; OVATE:D280V", "values": [
      {"measurement": "response (milliunits/(ml×cell))", "setting": "[7]; parent: est. 4.2", "result": 0.1}
    ]},
    {"substance": "m5; m1 SlTRM25:K327V; OVATE:E299V", "values": [
      {"measurement": "response (milliunits/(ml×cell))", "setting": "[8]; parent: est. 4.2", "result": 2.3}
    ]},
    {"substance": "m5; m2 SlTRM25:K327V; SlOFP20:D265R", "values": [
      {"measurement": "response (milliunits/(ml×cell))", "setting": "[9]; parent: est. 4.2", "result": 0.1}
    ]},
    {"substance": "m5; m2 SlTRM25:K327V; SlOFP20:D265V", "values": [
      {"measurement": "response (milliunits/(ml×cell))", "setting": "[10]; parent: est. 4.2", "result": 0.1}
    ]},
    {"substance": "m5; m2 SlTRM25:K327V; SlOFP20:D284V", "values": [
      {"measurement": "response (milliunits/(ml×cell))", "setting": "[11]; parent: est. 4.2", "result": 0.25}
    ]}
  ]
}
